{"source": "paper PMC4589512", "about": "(Nature cell biology, 2015)", "molecular_target": "CGG-CC1 (human, UniProt Q13586 233-343)", "sequence (Q13586 233-343)": "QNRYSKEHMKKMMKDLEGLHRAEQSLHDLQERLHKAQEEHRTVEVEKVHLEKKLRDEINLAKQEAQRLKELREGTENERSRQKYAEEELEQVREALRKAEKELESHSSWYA", "assay": "SPR"}
{"binder": "STIMATE-CT (analyte of the SPR) (domain or fragment) DNFLMRKGKTKAKLEERGANQDSRNGSKVRYRRAASHEESESEILISADDEMEESDVEEDLRRLTPLKPVKKKKHRFGLPV", "values": [{"measurement": "Kd", "result": "8.9 ± 0.7", "unit": "µM"}]}
